Biological target: ApexGT2 trimer (HIV-1 isolate BG505)
Assay: cryo-EM structure

B1: PCT64 35S Fab (Fab, V domains shown)
VH: EVQLVESGGGLVKPGGSLRLACVGSEFTFSEAWMTWVRQAPGKGLEWVGHMRPTTEGGAKDYAAAVRGRFTIARDDSKSTLYLQMNSLKIEDTGVYYCMTGVERGDFWSDDYSQHYNTYLIDVWGKGTTVTVSS
VL: EIVLTQSPGTLSLSPGDRATLSCRATQSVGGDYFAWYQQRPGQSPRLLIYGTSRRAAGIPDRFSGSGSGTDFTLTIDRLEPEDFAVYYCRQYETSFTFGPGTKVDIK
  stoichiometry N (Fab per trimer): 1

Reference: article PMC9671094
